According to publication PMC7616460, “Skraban-Deardorff intellectual disability syndrome-associated mutations in WDR26 impair CTLH E3 complex assembly” (FEBS letters, 2024):

Molecular target: the molecule itself
Test: cryo-EM structure; focused refinement (Relion v4.0) of the prior map EMD-12545 over the WDR26-YPEL5 region, 6.7 Å; fitted with AlphaFold2 models

B1: WDR26 in the CTLH subcomplex of the cryo-EM map EMD-12545 / EMD-19039 (natural protein, human, UniProt Q9H7D7 1-661, looked up)
chain: MQANGAGGGGGGGGGGGGGGGGGGGQGQTPELACLSAQNGESSPSSSSSAGDLAHANGLLPSAPSAASNNSNSLNVNNGVPGGAAAASSATVAAASATTAASSSLATPELGSSLKKKKRLSQSDEDVIRLIGQHLNGLGLNQTVDLLMQESGCRLEHPSATKFRNHVMEGDWDKAENDLNELKPLVHSPHAIVVRGALEISQTLLGIIVRMKFLLLQQKYLEYLEDGKVLEALQVLRCELTPLKYNTERIHVLSGYLMCSHAEDLRAKAEWEGKGTASRSKLLDKLQTYLPPSVMLPPRRLQTLLRQAVELQRDRCLYHNTKLDNNLDSVSLLIDHVCSRRQFPCYTQQILTEHCNEVWFCKFSNDGTKLATGSKDTTVIIWQVDPDTHLLKLLKTLEGHAYGVSYIAWSPDDNYLVACGPDDCSELWLWNVQTGELRTKMSQSHEDSLTSVAWNPDGKRFVTGGQRGQFYQCDLDGNLLDSWEGVRVQCLWCLSDGKTVLASDTHQRIRGYNFEDLTDRNIVQEDHPIMSFTISKNGRLALLNVATQGVHLWDLQDRVLVRKYQGVTQGFYTIHSCFGGHNEDFIASGSEDHKVYIWHKRSELPIAELTGHTRTVNCVSWNPQIPSMMASASDDGTVRIWGPAPFIDHQNIEEECSSMDS
notes: WDR26, human; the fitted AlphaFold2 model is of isoform 1 (Q9H7D7-1); subcomplex held WDR26, RANBP9, TWA1, ARMC8, GID4 and YPEL5; also called WDR26 dimer
With B1 the “stoichiometry N” value was 2.
